Columns and labels:
[1] = target: S. aureus GudB (glutamate dehydrogenase) (S. aureus (endogenous in USA300 JE2)); assay: native gel or EMSA
[2] = target: the molecule itself; assay: SEC
[3] = target: the molecule itself; assay: native gel or EMSA

“S. aureus GudB (glutamate dehydrogenase) (enzyme)” showed a stoichiometry N [1] of 3.

B1: N-terminally His-tagged WT Bcd (B. subtilis Val/Leu/Ile dehydrogenase) (enzyme, UniProt P54531 1-364, looked up)
chain: MELFKYMEKYDYEQLVFCQDEQSGLKAIIAIHDTTLGPALGGTRMWTYENEEAAIEDALRLARGMTYKNAAAGLNLGGGKTVIIGDPRKDKNEEMFRAFGRYIQGLNGRYITAEDVGTTVEDMDIIHDETDYVTGISPAFGSSGNPSPVTAYGVYRGMKAAAKAAFGTDSLEGKTIAVQGVGNVAYNLCRHLHEEGANLIVTDINKQSVQRAVEDFGARAVDPDDIYSQDCDIYAPCALGATINDDTIKQLKAKVIAGAANNQLKETRHGDQIHEMGIVYAPDYVINAGGVINVADELYGYNAERALKKVEGIYGNIERVLEISQRDGIPAYLAADRLAEERIERMRRSRSQFLQNGHSVLSRR
With B1 the “stoichiometry N” value [2] was 6.

B2: Bcd, native complex in B. subtilis NCIB3610 cell lysate (enzyme, B. subtilis (endogenous in NCIB3610), UniProt P54531 1-364, looked up)
chain: MELFKYMEKYDYEQLVFCQDEQSGLKAIIAIHDTTLGPALGGTRMWTYENEEAAIEDALRLARGMTYKNAAAGLNLGGGKTVIIGDPRKDKNEEMFRAFGRYIQGLNGRYITAEDVGTTVEDMDIIHDETDYVTGISPAFGSSGNPSPVTAYGVYRGMKAAAKAAFGTDSLEGKTIAVQGVGNVAYNLCRHLHEEGANLIVTDINKQSVQRAVEDFGARAVDPDDIYSQDCDIYAPCALGATINDDTIKQLKAKVIAGAANNQLKETRHGDQIHEMGIVYAPDYVINAGGVINVADELYGYNAERALKKVEGIYGNIERVLEISQRDGIPAYLAADRLAEERIERMRRSRSQFLQNGHSVLSRR
B2 was tested, and the “stoichiometry N” value [3] was 6.

B3: N-terminally His-tagged Bcd(K80A) (enzyme, B. subtilis, UniProt P54531 1-364, looked up)
chain: MELFKYMEKYDYEQLVFCQDEQSGLKAIIAIHDTTLGPALGGTRMWTYENEEAAIEDALRLARGMTYKNAAAGLNLGGGATVIIGDPRKDKNEEMFRAFGRYIQGLNGRYITAEDVGTTVEDMDIIHDETDYVTGISPAFGSSGNPSPVTAYGVYRGMKAAAKAAFGTDSLEGKTIAVQGVGNVAYNLCRHLHEEGANLIVTDINKQSVQRAVEDFGARAVDPDDIYSQDCDIYAPCALGATINDDTIKQLKAKVIAGAANNQLKETRHGDQIHEMGIVYAPDYVINAGGVINVADELYGYNAERALKKVEGIYGNIERVLEISQRDGIPAYLAADRLAEERIERMRRSRSQFLQNGHSVLSRR
B3 was tested, and the “stoichiometry N” value [2] was 6.

Reference: PMC12181280 (NPJ Biofilms and Microbiomes, 2025)
